# In publication PMC11260460, “A Plasmodium apicoplast-targeted unique exonuclease/FEN exhibits interspecies functional differences attributable to an insertion that alters DNA-binding”:
# B1: BLI blunt-end dsDNA (34 bp) (dsDNA)
# DNA 1: CAGTCCGAGCTAGGCAACATACGATAATCCATAC
# DNA 2: GTATGGATTATCGTATGTTGCCTAGCTCGGACTG
# B2: 5'-flap DNA (dsDNA)
# DNA 1: AAAACGTCAACTAGCTTCTCAAACAGCTCATATATCTTAA
# DNA 2: B1 DNA 1
# DNA 3: TTAAGATATATGAGCAGTATGGATTATCGTATGTTGCCTAGCTCGGACTG
# B3: Blunt-end dsDNA (14 bp) (dsDNA)
# DNA 1: CTAGTGTACATGCA
# DNA 2: TGCATGTACACTAG
# How the values were obtained:
# PfExo [1] = molecular target: T1, PfExo (Plasmodium falciparum 3D7, UniProt O96139 91-577); experiment: BLI; KD value only in figure; EMSA: 400 nM FAM-DNA, binding buffer as printed 200 mM HEPES pH 8.0, 500 mM NaCl, 10 mM DTT, 1 mg/ml BSA, 10% glycerol, 2 mM MgCl2, 30 min on ice, 6% native PAGE; BLI: 1x kinetic buffer in 1x PBS, Octet R8, 1:1 global fit; details: protein: recombinant; tags: C-terminal 6xHis; label: 5' biotin on strand 1; blunt
# T1 sequence: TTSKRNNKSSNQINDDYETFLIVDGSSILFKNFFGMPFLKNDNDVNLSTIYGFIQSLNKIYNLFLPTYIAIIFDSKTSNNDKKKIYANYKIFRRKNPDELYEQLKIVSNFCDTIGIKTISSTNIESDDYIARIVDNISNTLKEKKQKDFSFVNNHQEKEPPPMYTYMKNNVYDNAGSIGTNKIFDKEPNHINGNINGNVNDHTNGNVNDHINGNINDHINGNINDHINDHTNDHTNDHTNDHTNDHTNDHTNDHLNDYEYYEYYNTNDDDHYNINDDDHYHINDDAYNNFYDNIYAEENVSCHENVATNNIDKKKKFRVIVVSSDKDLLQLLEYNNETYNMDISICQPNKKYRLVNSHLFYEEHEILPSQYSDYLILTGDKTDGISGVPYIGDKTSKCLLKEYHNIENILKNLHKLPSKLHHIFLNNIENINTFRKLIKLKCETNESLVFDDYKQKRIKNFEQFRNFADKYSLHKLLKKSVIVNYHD
# PfExoΔins [2] = molecular target: T2, PfExoΔins (Plasmodium falciparum 3D7, UniProt O96139 91-577, del241-393); experiment: BLI; EMSA: 400 nM FAM-DNA, binding buffer as printed 200 mM HEPES pH 8.0, 500 mM NaCl, 10 mM DTT, 1 mg/ml BSA, 10% glycerol, 2 mM MgCl2, 30 min on ice, 6% native PAGE; BLI: 1x kinetic buffer in 1x PBS, Octet R8, 1:1 global fit; details: protein: recombinant; tags: C-terminal 6xHis; label: 5' biotin on strand 1; blunt
# PfExo [3] = molecular target: T1, PfExo; experiment: EMSA; 2 mM Mg2+; EMSA: 400 nM FAM-DNA, binding buffer as printed 200 mM HEPES pH 8.0, 500 mM NaCl, 10 mM DTT, 1 mg/ml BSA, 10% glycerol, 2 mM MgCl2, 30 min on ice, 6% native PAGE; BLI: 1x kinetic buffer in 1x PBS, Octet R8, 1:1 global fit; details: protein: recombinant, tags: C-terminal 6xHis
# PfExoΔins [4] = molecular target: T2, PfExoΔins; experiment: as above; details: protein: recombinant, tags: C-terminal 6xHis
binder,measurement,setting,value
B1,binding result,PfExo [1],binds
same,binding signal,PfExoΔins [2],~5 fold higher KD than PfExo
B2,binding result,"PfExo [3]; label: FAM, 5' flap",binds
same,binding result,"PfExoΔins [4]; label: FAM, 5' flap",no binding
B3,binding result,"PfExoΔins [4]; label: 3' 6-FAM on strand 1, blunt",no binding
AAAACGTCAACTAGCTTCTCAAACACCTCATATATCTTAA (ssDNA) [ssDNA 5'-3' exo substrate],binding result,"PfExo [3]; label: 3' 6-FAM, single strand",binds
AAAACGTCAACTAGCTTCTCAAACAGCTCATATATCTTAA (ssDNA) [ssDNA 3'-5' exo substrate],binding result,"PfExo [3]; label: 5' 6-FAM, single strand",binds
